Experimental data: patent publication US20220096548A1

B1: scFv antibody derived from reference Antibody 3 (binding to IL-6), fused with an Fc fragment of human IgG1 (Fc fusion, not shown: a dimerising Fc or GST)
scFv: QIVLIQSPAIMSASPGEKVTMTCSASSSVSYMYWYQQKPGSSPRLLIYDTSNLASGVPVRFSGSGSGTSYSLTISRMEAEDAATYYCQQWSGYPYTFGGGTKLEIKGGGGSGGGGSGGGGSEVQLVESGGKLLKPGGSLKLSCAASGFTFSSFAMSWFRQSPEKRLEWVAEISSGGSYTYYPDTVTGRFTISRDNAKNTLYLEMSSLRSEDTAMYYCARGLWGYYALDYWGQGTSVTVSS
B2: scFv antibody derived from reference Antibody 4 (binding to IL-6R), fused with an Fc fragment of human IgG1 (Fc fusion, not shown: a dimerising Fc or GST)
scFv: QVQLQESGPGLVRPSQTLSLTCTVSGYSITSDHAWSWVRQPPGRGLEWIGYISYSGITTYNPSLKSRVTMLRDTSKNQFSLRLSSVTAADTAVYYCARSLARTTAMDYWGQGSLVTVSSGGGGSGGRASGGGGSGGGGSDIQMTQSPSSLSASVGDRVTITCRASQDISSYLNWYQQKPGKAPKLLIYYTSRLHSGVPSRFSGSGSGTDFTFTISSLQPEDIATYYCQQGNTLPYTFGQGTKVEIK
B3: scFv antibody derived from reference Antibody 2 (binding to IL-6), fused with an Fc fragment of human IgG1 (Fc fusion, not shown: a dimerising Fc or GST)
scFv: EIVLTQSPATLSLSPGERATLSCSASISVSYMYWYQQKPGQAPRLLIYDMSNLASGIPARFSGSGSGTDFTLTISSLEPEDFAVYYCMQWSGYPYTFGGGTKVEIKGGGGSGGGGSGGGGSEVQLVESGGGLVQPGGSLRLSCAASGFTFSPFAMSWVRQAPGKGLEWVAKISPGGSWTYYSDTVTGRFTISRDNAKNSLYLQMNSLRAEDTAVYYCARQLWGYYALDIWGQGTTVTVSS
B4: scFv antibody derived from reference Antibody 1 (binding to IL-6R), fused with an Fc fragment of human IgG1 (Fc fusion, not shown: a dimerising Fc or GST)
scFv: DIQMTQSPSSVSASVGDRVTITCRASQGISSWLAWYQQKPGKAPKLLIYGASSLESGVPSRFSGSGSGTDFTLTISSLQPEDFASYYCQQANSFPYTFGQGTKLEIKGGGGSGGGGSGGGGSEVQLVESGGGLVQPGRSLRLSCAASRFTFDDYAMHWVRQAPGKGLEWVSGISWNSGRIGYADSVKGRFTISRDNAENSLFLQMNGLRAEDTALYYCAKGRDSFDIWGQGTMVTVSS

Legend:
human IL-6 (human) = human IL-6 (human) (UniProt P05231); assay: cell-based or functional assay
UniProt P05231, sequence (P05231 30-212 limits assumed): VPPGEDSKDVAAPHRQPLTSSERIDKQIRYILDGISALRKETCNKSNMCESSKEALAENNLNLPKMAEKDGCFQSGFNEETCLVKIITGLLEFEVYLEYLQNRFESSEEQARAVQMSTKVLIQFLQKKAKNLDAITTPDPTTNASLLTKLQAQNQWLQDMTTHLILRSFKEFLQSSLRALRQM

[1] = target: IL-6R expressed on HEK-Blue IL-6 reporter cells (UniProt P08887); assay: cell-based or functional assay
UniProt P08887, sequence (P08887 20-468 limits assumed): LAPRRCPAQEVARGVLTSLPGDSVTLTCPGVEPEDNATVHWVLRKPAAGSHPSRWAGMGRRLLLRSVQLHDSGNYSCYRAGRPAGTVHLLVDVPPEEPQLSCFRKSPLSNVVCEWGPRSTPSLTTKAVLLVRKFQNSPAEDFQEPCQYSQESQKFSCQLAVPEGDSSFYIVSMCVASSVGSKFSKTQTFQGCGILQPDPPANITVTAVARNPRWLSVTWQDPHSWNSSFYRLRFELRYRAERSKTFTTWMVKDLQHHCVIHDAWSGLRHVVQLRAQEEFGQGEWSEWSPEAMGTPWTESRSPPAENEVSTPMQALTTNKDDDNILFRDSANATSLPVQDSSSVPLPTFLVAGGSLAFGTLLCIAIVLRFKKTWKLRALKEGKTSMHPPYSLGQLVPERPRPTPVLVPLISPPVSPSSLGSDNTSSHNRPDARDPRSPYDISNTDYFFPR

Binder | inhibition of IL-6 signaling (SEAP production by HEK-Blue IL-6 reporter cells, 2 ng/ml human IL-6) (human IL-6 (human)) [%] | inhibition of IL-6 signaling (SEAP production by HEK-Blue IL-6 reporter cells, 2 ng/ml human IL-6) [1] [%]
B1 | < 60 | –
B2 | – | < 60
B3 | 100 | –
B4 | – | 100
